Data taken from paper PMC2730839.

Substrate: O=C(O)C(=O)c1ccccc1
Experiment: steady-state kinetics
Format: biochemical, Pseudomonas putida
Details: thiamin diphosphate (ThDP), Mg2+ active site

B1: benzoylformate decarboxylase (BFDC) (Pseudomonas putida) (protein)
chain: MASVHGTTYELLRRQGIDTVFGNPGSNELPFLKDFPEDFRYILALQEACVVGIADGYAQASRKPAFINLHSAAGTGNAMGALSNAWNSHSPLIVTAGQQTRAMIGVEALLTNVDAANLPRPLVKWSYEPASAAEVPHAMSRAIHMASMAPQGPVYLSVPYDDWDKDADPQSHHLFDRHVSSSVRLNDQDLDILVKALNSASNPAIVLGPDVDAANANADCVMLAERLKAPVWVAPSAPRCPFPTRHPCFRGLMPAGIAAISQLLEGHDVVLVIGAPVFRYHQYDPGQYLKPGTRLISVTCDPLEAARAPMGDAIVADIGAMASALANLVEESSRQLPTAAPEPAKVDQDAGRLHPETVFDTLNDMAPENAIYLNESTSTTAQMWQRLNMRNPGSYYFCAAGGLGFALPAAIGVQLAEPERQVIAVIGDGSANYSISALWTAAQYNIPTIFVIMNNGTYGALRWFAGVLEAENVPGLDVPGIDFRALAKGYGVQALKADNLEQLKGSLQEALSAKGPVLIEVSTVSPVK
Question: For B1, which Km is on record?
Answer: 760 ± 90 µM
